Data: patent US20100120700A1, “METHODS AND COMPOSITIONS FOR TREATING CERVICAL CANCER” (priority 2000, published 2010)
“Also recorded” adds a separate entry of the source. Where two headings read alike, the source gives them in different places.

Tests used:
[1] = system: human PDZ domains; experiment: G assay, E6 PL peptides against PDZ domain panel; settings: value names the PDZ domain(s) that saturated binding with the E6 peptide; signal classes (A450 nm 3-4 or 4)
Experimental: (1) A PDZ-domain polypeptide is bound to a surface, e.g. a protein binding surface. In a preferred embodiment, a GST/PDZ fusion protein containing one or more PDZ domains is bound to a polystyrene 96-well plate. […] In one embodiment, the GST/PDZ fusion protein is bound via an anti-GST antibody that is coated onto the 96-well plate. Adequate binding to the plate can be achieved when: • a. 100 uL per well of 5 ug/mL goat anti-GST polyclonal antibody (Pierce) in PBS is added to a polystyrene 96-well plate (e.g., Num Polysorb) at 4° C. for 12 hours. • b. The plate is blocked by addition of 200 uL per well of PBS/BSA for 2 hours at 4° C. • c. The plate is washed 3 times with PBS. • d. […]
(3) The binding of the biotinylated peptide to the GST/PDZ fusion protein surface can be detected using a variety of methods and detectors known to one of skill in the art. […] The reaction of the HRP and its substrate is terminated by addition of 100 uL per well of 1M sulfuric acid, and the absorbance of each well of the plate is read at 450 nm.
(4) Specific binding of a PL peptide and a PDZ domain polypeptide is determined by comparing the signal from the well(s) in which the PL peptide and PDZ domain polypeptide are combined, with the background signal(s). […]

[2] = target: GST-HPV18E6 fusion protein (Human papillomavirus type 18, UniProt P06463); settings: plate coated with 5 ug/ml GST-E6, unpurified TIP-TIP-IgG supernatant, FIG. 2
Experimental: (§1) Protocol • 1) Coat plate with 5 ug/ml GST-E6 fusion protein, O/N @4° C. • 2) Dump proteins out and tap dry • 3) Blocking—Add 200 ul per well 2% BSA/PBS, 2 hrs at 4° C. • 4) Prepare PDZ proteins (50:50 mixture of supematant from TIP-TIP-IgG transfection and 2% BSA/PBS) • 5) 3× wash with cold PBS • 6) Add PDZ protein prepared in step 7 or anti-E6 Ab at 1 ug/ml in 2% BSA/PBS (or anti-GST Ab as control). • 7) 3× wash with cold PBS • 8) Add appropriate concentration of enzyme-conjugated detection Ab (anti-hIgG-HRP, anti-goat-HRP, or anti-mouse-HRP) 100 ul per well on ice, 20 minutes at 4° C. • 9) Turn on plate reader and prepare files • 10) 5× wash with Tween wash buffer, avoiding bubbles • 11) Using gloves, add TMB substrate at 100 ul per well • incubate in dark at room temp • check plate periodically (5, 10, & 20 minutes) • take early readings, if necessary, at 650 nm (blue) • at 30 minutes, stop reaction with 100 ul of 1M H2SO4 • take final reading at 450 nm (yellow)

[3] = target: T1, GST-HPV11E6 (Human papillomavirus 11, UniProt P04019); experiment: Modified ELISA, TIP-TIP-IgG binding to full length E6; parameters: species or system HPV11; settings: plate coated with 5 ug/ml GST-E6; FIG. 2
T1 construct: made in house; host or cells: E. coli
T1 sequence (P04019 whole entry): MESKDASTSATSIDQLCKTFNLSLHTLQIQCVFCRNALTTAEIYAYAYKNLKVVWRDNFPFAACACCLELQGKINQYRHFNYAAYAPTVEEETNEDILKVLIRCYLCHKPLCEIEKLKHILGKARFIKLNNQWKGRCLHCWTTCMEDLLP
Experimental: as §1

Sequence of GST-HPV18E6 fusion protein (P06463 whole entry, the tested form may be a part): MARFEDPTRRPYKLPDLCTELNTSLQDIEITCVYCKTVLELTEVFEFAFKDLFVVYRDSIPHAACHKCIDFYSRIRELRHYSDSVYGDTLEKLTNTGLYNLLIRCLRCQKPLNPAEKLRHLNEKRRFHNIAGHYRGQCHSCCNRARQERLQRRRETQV

For “HPV 18: biotinylated 18-20 aa E6 C-terminal peptide of HPV 18, terminal residues E T Q V; RLQRRRETQV (SEQ ID NO: 14)”, which “PDZ binding partner (signal 4 and 5 of 0-5)” value [1] is on record?
Its value is “TIP1 and Magi 1 (PDZ #2)”.

B1: TIP-TIP-IgG fusion protein: two copies of the TIP-1 PDZ domain fused to the hIgG constant region (protein)
chain: QRVEIHKLRQGENLILGFSIGGGIDQDPSQNPFSEDKTDKGIYVTRVSEGGPAEIAGLQIGDKIMQVNGWDMTMVTHDQARKRLTKRSEEVVRLLVTRQSLQKQRVEIHKLRQGENLILGFSIGGGIDQDPSQNPFSEDKTDKGIYVTRVSEGGPAEIAGLQIGDKIMQVNGWDMTMVTHDQARKRLTKRSEEVVRLLVTRQSLQK
modifications: left off: a dimerising Fc or GST
notes: two copies of the TIP-1 PDZ domain fused to the hIgG constant region
With B1 as the molecule, how does the “binding to full length oncogenic E6 (HPV18)” value [2] read?
The value was “able to recognize GST-HPV18E6 fusion protein at levels comparable to an antibody generated against HPV18-E6”.

What about the “binding to full length oncogenic E6 (HPV18)” value ([2]; listed as TIP-1) of the same molecule?
The value was “could specifically recognize full length E6 protein from an oncogenic strain (HPV18)”.

And the “binding to full length non-oncogenic E6 (HPV11)” value [3]?
Its value is “did not show any reactivity; also recorded: without binding to non-oncogenic variants”.
